Assay [1] has as its target Cleaved TEV-BID (p7 and tBID domains after TEV protease cleavage) (human) (UniProt P55957). The assay can be described thus: thioflavin T fluorescence; 5 μM protein with 50 μM peptide, ThT emission spectra against protein alone, peptide alone and buffer.
Assay [2] addresses BID (BH3-interacting domain death agonist), N-terminal His6-tagged, wild type (human) (UniProt P55957). Kind of assay: light-scattering titration; peptide titrated into 5 μM BID, scattered photons of a 280-nm beam; 20 mM sodium acetate pH 6.3; also at 10, 24 and 37 °C, with 0.25% or 1% OG, and in 20 mM potassium phosphate pH 5.5 to 8.0.

UniProt P55957, sequence (P55957 whole entry, the tested form may be a part): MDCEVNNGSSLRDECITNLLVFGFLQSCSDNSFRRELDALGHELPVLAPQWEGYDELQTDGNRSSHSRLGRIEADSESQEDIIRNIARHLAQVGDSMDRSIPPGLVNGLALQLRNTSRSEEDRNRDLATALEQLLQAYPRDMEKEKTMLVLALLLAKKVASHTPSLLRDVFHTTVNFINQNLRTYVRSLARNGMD

Humanin (HN), wild-type peptide came in with an increase in ThT fluorescence against WT BID in assay [1] of 15%. In assay [2], the fold increase in light scattering at pH 8.0 was 8 fold, the fold increase in light scattering with 1% (w/v) OG against no detergent amounted to 5 fold, the fold increase in scattered photons at 37 °C against 24 °C amounted to 2.5 fold and the fold increase in scattered photons at neutral pH against pH 6.0 was 4 fold. In addition, in assay [2], the protein-to-peptide ratio at the plateau of scattered photons (protein to peptide) is 2.
